Measurements reported in article PMC12483278, “The viral BCL2 protein BHRF1 of Epstein–Barr virus promotes AIM2 inflammasome activation to facilitate lytic replication” (PLOS Pathogens, 2025).

Molecular target: T1, GST-AIM2 full-length (UniProt O14862 1-343)
T1 construct: also called GST-AIM2 WT; GST-tagged AIM2; source: HEK293T, transfected, in lysate
T1 sequence (looked up): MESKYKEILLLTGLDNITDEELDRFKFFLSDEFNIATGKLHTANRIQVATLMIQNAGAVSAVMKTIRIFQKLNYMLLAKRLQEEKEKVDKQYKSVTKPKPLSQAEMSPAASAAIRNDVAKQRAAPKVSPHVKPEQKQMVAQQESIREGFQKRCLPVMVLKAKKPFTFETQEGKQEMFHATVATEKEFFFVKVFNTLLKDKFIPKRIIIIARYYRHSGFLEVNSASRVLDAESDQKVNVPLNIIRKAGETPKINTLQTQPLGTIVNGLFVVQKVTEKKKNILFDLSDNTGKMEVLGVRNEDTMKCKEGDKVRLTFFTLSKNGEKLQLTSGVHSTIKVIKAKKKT
Test: pull-down; purified GST-AIM2, Flag-ASC-His and GFP-BHRF1-His mixed and incubated in the absence or presence of purified HSV-1 dsDNA overnight at 4 °C; GST-affinity beads, western blotting
Conditions: both partners purified

B1: GFP-BHRF1-His (natural protein)
chain: MAYSTREILLALCIRDSRVHGNGTLHPVLELAARETPLRLSPEDTVVLRYHVLLEEIIERNSETFTETWNRFITHTEHVDLDFNSVFLEIFHRGDPSLGRALAWMAWCMHACRTLCCNQSTPYYVVDLSVRGMLEASEGLDGWIHQQGGWSTLIEDNIPGSRRFSWTLFLAGLTLSLLVICSYLFISRGRH
notes: also called purified BHRF1 protein
binding result: binds
